Columns and labels:
[1] = biological target: activated coagulation factor XI (FXIa) (human); assay: cell-based or functional assay
[2] = biological target: T1, elastase (purified from human sputum) (human, UniProt P08246 30-267); assay: cell-based or functional assay
T1 sequence (looked up): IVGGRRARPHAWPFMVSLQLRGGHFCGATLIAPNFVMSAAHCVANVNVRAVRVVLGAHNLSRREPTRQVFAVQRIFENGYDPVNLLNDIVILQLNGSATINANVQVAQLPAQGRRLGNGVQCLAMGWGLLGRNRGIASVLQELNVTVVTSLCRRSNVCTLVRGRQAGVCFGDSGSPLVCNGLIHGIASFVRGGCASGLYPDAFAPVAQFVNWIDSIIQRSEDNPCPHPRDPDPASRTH

cathepsin G [3] = biological target: T2, cathepsin G (human, UniProt P08311 21-244); assay: cell-based or functional assay
T2 sequence (looked up): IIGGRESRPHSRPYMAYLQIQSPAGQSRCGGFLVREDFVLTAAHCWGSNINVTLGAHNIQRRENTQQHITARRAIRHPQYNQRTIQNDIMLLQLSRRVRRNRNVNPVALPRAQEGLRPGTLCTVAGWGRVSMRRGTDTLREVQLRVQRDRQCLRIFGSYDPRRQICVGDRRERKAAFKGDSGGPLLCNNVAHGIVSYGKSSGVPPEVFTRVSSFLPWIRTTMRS

plasmin = plasmin (human); assay: cell-based or functional assay
kallikrein = kallikrein (human, UniProt P03952 20-638); assay: cell-based or functional assay
[4] = biological target: trypsin (sequencing grade) (human, UniProt P07477 16-247); assay: cell-based or functional assay
skin β-tryptase = skin β-tryptase (human, UniProt Q15661 19-275); assay: cell-based or functional assay
[5] = biological target: T1, elastase (purified from human sputum); assay: SPR; kinetics: rSimukunin immobilised on a CM5 chip by amine coupling (475.3 RU); FXa 3.1-50 nM or elastase 0.45-3.75 nM injected for 180 s at 30 µl/minute, 25°C; HBS-P (10 mM Hepes pH 7.4, 150 mM NaCl, 0.005% P20); global fit to a 1:1 Langmuir model; details: both partners purified
[6] = biological target: T1, elastase (purified from human sputum); assay: enzyme inhibition assay (Ki from IC50 by Cheng and Prusoff); rSimukunin titrated against a constant concentration of enzyme, pre-incubated 5 min, fluorogenic peptidyl substrate 250 µM, 30°C; Ki calculated from the IC50 and the substrate's Km; estimated; details: both partners purified
cathepsin G [7] = biological target: T2, cathepsin G; assay: as above; details: both partners purified

trypsin (sequencing grade), sequence (P07477 16-247): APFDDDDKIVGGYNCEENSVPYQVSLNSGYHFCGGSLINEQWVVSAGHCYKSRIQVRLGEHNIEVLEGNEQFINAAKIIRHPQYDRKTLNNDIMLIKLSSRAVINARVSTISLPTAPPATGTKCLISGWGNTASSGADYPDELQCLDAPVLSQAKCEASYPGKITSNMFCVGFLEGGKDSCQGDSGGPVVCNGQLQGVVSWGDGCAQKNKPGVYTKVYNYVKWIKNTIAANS
plasmin (human), sequence (P00747 20-580, chain 1 of 2): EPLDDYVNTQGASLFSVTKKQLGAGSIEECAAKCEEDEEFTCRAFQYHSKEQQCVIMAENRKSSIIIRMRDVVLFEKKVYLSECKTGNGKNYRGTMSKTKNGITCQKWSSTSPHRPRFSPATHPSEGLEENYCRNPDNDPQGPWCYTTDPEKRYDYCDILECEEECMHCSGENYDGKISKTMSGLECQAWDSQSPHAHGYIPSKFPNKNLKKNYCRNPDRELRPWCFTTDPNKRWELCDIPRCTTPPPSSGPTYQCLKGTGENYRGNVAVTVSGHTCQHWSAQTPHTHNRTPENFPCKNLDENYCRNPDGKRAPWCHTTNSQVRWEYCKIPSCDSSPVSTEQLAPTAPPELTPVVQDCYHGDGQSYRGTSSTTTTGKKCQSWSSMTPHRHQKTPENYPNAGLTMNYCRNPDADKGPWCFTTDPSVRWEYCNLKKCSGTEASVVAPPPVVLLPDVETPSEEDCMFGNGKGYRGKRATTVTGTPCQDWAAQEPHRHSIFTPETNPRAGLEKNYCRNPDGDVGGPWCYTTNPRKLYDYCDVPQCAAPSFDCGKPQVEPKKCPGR
plasmin (human), sequence (P00747 581-810, chain 2 of 2): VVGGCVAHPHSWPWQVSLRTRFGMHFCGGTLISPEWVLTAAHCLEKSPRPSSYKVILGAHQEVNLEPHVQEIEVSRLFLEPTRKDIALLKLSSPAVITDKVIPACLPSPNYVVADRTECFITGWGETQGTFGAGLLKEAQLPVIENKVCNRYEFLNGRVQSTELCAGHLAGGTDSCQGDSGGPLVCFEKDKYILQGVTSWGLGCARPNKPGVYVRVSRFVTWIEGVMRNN
kallikrein, sequence (P03952 20-638): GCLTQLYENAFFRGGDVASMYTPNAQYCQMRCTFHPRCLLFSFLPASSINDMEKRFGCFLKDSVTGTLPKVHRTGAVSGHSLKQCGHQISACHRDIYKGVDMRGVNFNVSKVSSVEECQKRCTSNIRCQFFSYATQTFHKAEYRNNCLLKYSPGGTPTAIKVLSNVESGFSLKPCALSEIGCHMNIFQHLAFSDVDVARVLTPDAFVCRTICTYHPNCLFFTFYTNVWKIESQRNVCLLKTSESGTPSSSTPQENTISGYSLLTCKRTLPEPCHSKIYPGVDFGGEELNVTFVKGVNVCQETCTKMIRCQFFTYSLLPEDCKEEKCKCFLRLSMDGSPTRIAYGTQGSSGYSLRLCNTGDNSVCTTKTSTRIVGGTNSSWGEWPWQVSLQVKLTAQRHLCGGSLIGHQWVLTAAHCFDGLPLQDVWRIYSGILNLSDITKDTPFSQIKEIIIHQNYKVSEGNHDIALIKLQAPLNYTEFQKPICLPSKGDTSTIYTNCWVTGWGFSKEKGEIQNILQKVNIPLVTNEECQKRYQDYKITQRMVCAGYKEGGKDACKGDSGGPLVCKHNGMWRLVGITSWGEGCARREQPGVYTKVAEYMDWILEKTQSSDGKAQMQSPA
activated coagulation factor XI (FXIa) (human), sequence (chain, as listed by the source, chain 1 of 2): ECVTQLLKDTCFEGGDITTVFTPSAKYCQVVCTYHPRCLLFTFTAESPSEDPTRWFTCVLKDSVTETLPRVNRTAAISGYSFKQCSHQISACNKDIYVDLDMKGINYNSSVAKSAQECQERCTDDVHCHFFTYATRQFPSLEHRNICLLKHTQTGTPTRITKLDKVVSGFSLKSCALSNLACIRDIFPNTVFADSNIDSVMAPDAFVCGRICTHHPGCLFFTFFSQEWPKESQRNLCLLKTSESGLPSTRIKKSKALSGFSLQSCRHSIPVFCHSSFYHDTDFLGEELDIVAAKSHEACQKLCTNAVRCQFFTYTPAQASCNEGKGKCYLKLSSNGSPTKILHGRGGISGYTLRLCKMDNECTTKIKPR
activated coagulation factor XI (FXIa) (human), sequence (chain, as listed by the source, chain 2 of 2): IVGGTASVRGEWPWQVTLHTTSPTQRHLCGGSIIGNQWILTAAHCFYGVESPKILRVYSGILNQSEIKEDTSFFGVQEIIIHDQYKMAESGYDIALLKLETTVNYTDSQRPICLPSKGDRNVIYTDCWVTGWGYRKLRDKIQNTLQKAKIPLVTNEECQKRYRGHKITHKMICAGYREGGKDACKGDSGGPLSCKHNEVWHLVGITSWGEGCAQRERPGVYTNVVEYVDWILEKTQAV
skin β-tryptase, sequence (Q15661 19-275): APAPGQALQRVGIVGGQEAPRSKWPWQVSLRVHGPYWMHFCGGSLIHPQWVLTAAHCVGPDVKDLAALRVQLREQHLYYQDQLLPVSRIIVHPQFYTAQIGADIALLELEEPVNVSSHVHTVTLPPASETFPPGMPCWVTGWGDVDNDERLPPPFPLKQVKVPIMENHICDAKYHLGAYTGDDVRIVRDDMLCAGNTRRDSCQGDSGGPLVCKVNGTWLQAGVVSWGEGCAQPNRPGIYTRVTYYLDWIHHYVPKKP

B1: recombinant Simukunin (rSV-66) (natural protein, Simulium vittatum, UniProt B5M0W4 20-102, looked up)
chain: QENVCNLPVDEGVCRALFKRFYYEPATDSCKEFYYGGCEGNGNRFKSKKECILKCQKNKQLIKTRKRKPKKTTKPPIPIISLD
notes: SV-66 (Simukunin), Kunitz family salivary protein of the black fly Simulium vittatum; full-length ORF without signal peptide was cloned; numbers count on: the mature protein; pET-30 Ek/LIC vector; The purified protein ran as a doublet; also called rSimukunin; WT rSimukunin; source: E. coli BL21 (DE3), purified (Ni-NTA, RP-HPLC)
[1]
  IC50 of inhibition of enzyme activity (fluorogenic peptidyl substrate, 250 µM); Factor XIa 0.06 nM: 56.7 nM
[2]
  IC50 of inhibition of enzyme activity (fluorogenic peptidyl substrate, 250 µM); elastase 0.18 nM: 4.9 nM
Cathepsin G [3]
  IC50 of inhibition of enzyme activity (fluorogenic peptidyl substrate, 250 µM); cathepsin G 6.7 nM: 217 nM
plasmin
  IC50 of inhibition of enzyme activity (fluorogenic peptidyl substrate, 250 µM); plasmin 0.2 nM: 32.2 nM
kallikrein
  IC50 of inhibition of enzyme activity (fluorogenic peptidyl substrate, 250 µM); kallikrein 0.08 nM: 91.8 nM
[4]
  IC50 of inhibition of enzyme activity (fluorogenic peptidyl substrate, 250 µM); trypsin 0.1 nM: 379 nM
Skin β-tryptase
  IC50 of inhibition of enzyme activity (fluorogenic peptidyl substrate, 250 µM); β-tryptase 0.01 nM: 66.8 nM
[5]
  Kd: 0.4 nM
  koff: 0.0173 s⁻¹
  kon: 4.3e+07 M⁻¹ s⁻¹
[6]
  Ki: ~0.65 nM
Cathepsin G [7]
  Ki: 100 nM

From paper PMC3285612, “Simukunin from the Salivary Glands of the Black Fly Simulium vittatum Inhibits Enzymes That Regulate Clotting and Inflammatory Responses” (PLoS ONE, 2012)
